This is an account of results in the DeepSol protein solubility set.

The data set is described as follows: soluble on expression in E. coli; label from the status in PepcDB or PDB records.
Turning to “MPKISSRDGGRPAQRTVNPIIVTRRGKIARLESGLTPQEAQIEDLVFLRKVLNRADIPYLLIRNHKNRPVLAINIELRAGLERALAAACATEPMYAKTIDEPGLSPVLVATDGLSQLVDPRVVRLYRRRIAPGGFRYGPAFGVELQFWVYEETVIRCPVENSLSRKVLPRNEITPTNVKLYGYKWPTLDGMFAPHASDVVFDIDMVFSWVDGSDPEFRARRMAQMSQYVVGEGDDAEARIRQIDELKYALRSVNMFAPWIRRIFIATDSTPPPWLAEHPKITIVRAEDHFSDRSALPTYNSHAVESQLHHIPGLSEHFLYSNDDMFFGRPLKASMFFSPGGVTRFIEAKTRIGLGANNPARSGFENAARVNRQLLFDRFGQVITRHLEHTAVPLRKSVLIEMEREFPEEFARTAASPFRSDTDISVTNSFYHYYALMTGRAVPQEKAKVLYVDTTSYAGLRLLPKLRKHRGYDFFCLNDGSFPEVPAAQRAERVVSFLERYFPIPAPWEKIAADVSRRDFAVPRTSAPSEGA”, the “soluble on expression in E. coli” value is listed as “soluble”.

On to “MGHHHHHHSHMYAKEIFSYMKEREEQFILTDYMNRQIEITSDMRAILVDWLVEVQVSFEMTHETLYLAVKLVDLYLMKAVCKKDKLQLLGATAFMIAAKFEEHNSPRVDDFVYICDDNYQRSEVLSMEINILNVLKCDINIPIAYHFLRRYAR”, for which the “soluble on expression in E. coli” value is “not soluble”. As for “MMLFSNLIKENQKIWNAYLHHDFVKKLEDKSLKQENFLFYLKQDYIYLLNYAKCYARLALNSNTAKELRFAMKFQNYIVEGEMELHRAILSLGINADELDIKDESLVNIAYSRYMLSVGENGDFLDMLVALSACAIGYAKIGAEIINRLKNENLKDHPYKEWILTYGSENFQNEAKEFEDFVNSYTSSVGAQKFQKLSEIFHTVTRLEVAFWEHSLRMELNLLEHHHHHH”, the “soluble on expression in E. coli” value is “soluble”. For “MAHHHHHHMKWSAVCLLKRDFDAWAYSINWPQRKSHLPLLGSVSLTVEDIKFAYNAWCLLRLAMFFGTGHPKILSPLVNTTPSMDIMYGGNRLFYMHAEVGASLSRHKPKVALTPSHPDAQPVQSFPWRKVIREAGERRTGNEDCDGGVEIVLGMENGLSENVVSQCDYCLYIPQYGSIGSLSMISAMAIALHSAASAHVDQYMRDDDRVSPCSSRGHMPLSNGSLKVTKGNNLPHETNLLSLSNVEIAEILRARRMSYPMQLSVMVYNEFGDRNIGAIMRNANVFNCEQMIVLHRRKFNRRGALGTQHLIKTLFCSGVDDAQCQKSLEGYTIWLLYQYYPYLKIYEDPNGDEDATFIRPESTLLQEWLQGSYGMNPDHPMMNFHASHMIGTDVYLDDSDSVHAAVRHAANEGYRGIVLVVPEEGASFQRDIVKKARRIAYVVHPDRLARNVQRGLNGALSSAIALERLRTAIDGLQ”, the “soluble on expression in E. coli” value is “not soluble”. For the sequence “GPGSMSSERYVDGDLGEPFNSAEPLTLPVVVQLLRGRRDTSLDHPASRLIEKTCRQVELMQETCADECRVQRVMETRLRLVNKNNRQQMNAHLGNFVVGEDGFATLPPESDDFLDTAEEEAMKMFEVVALGTLQPKTADEARELIPSLGRFEPADLNKVLEMLDSL”, the “soluble on expression in E. coli” value was “not soluble”.

For “MPTFTLRPYTEADEDPAIALWLRTWQLAYPAIDFTKRVDWWRERWRTELVPQAAIIVAEQDSALIGFVTIDAVGYLDQLVVEPEHWGWGVAEALVDEAKQRSPTEVTLKVNADNYRAIKFYRRNGFAVTSEELNSSGRPVLNMLWRPA”, the “soluble on expression in E. coli” value is given as “not soluble”. Regarding “GSHHHHHHSSGLVPRGSFNELNAINENIRDDLSALLKSDFFKYFRLDLYKQCSFWDANDGLCLNRACSVDVVEDWDTLPEYWQPEILGSFNNDTMKEADDSDDECKFLDQLCQTSKKPVDIEDTINYCDVNDFNGKNAVLIDLTANPERFTGYGGKQAGQIWSTIYQDNCFTIGETGESLAKDAFYRLVSGFHASIGTHLSKEYLNTKTGKWEPNLDLFMARIGNFPDRVTNMYFNYAVVAKALWKIQPYLPEFSFCDLVNKEIKNKMDNVISQLDTKIFNEDLVFANDLSLTLKDEFRSRFKNVTKIMDCVQCDRCRLWGKIQTTGYATALKILFEINDADEFTKQHIVGKLTKYELIALLQTFGRLSESIESVNMFEKMYGKRLLER”, the “soluble on expression in E. coli” value was “soluble”. As for “MTKVALFSGGDLTYFTRDFDYFVGIDKGSSFLLKNQLPLDLAIGDFDSVSAEEFKQIKAKAKKLVMAPAEKNDTDTELALKTIFDCFGRVEIIVFGAFGGRIDHMLSNIFLPSDPDLAPFMRCFKLRDEQNLVEFFPAGQHQIEQATDMVYISFMAANGAHLSIQDAKYELTEENYFQKKIYSSNEFKDKPICFSVASGYVVVIQTKDRTLEHHHHHH”, the “soluble on expression in E. coli” value is given as “soluble”. “MTQSDYIESSEHIKDTQIGYCKYGHGPNYILAICGAVGCYKKDWPLKLLSHFPPDQVTIVGIDPPGYGTSRPPERKQEVQRCMKDSEYCLGLMETLKLEPFTVMGWSEGARTTVHVAAKGKEKVNRMIVMAGATKVNHLGAMAFKGMRETNHWLAAGRQPYLDHYSPETLRTQWAALCDVVDQVHSFCGGRFPCDLVLPQVKCPTLVMNGGLDRFCGDPNVCFIPVLKSLAKVEIHAQGGHDFYLKYPKWFSGKVLEFLKSTEKK”: the “soluble on expression in E. coli” value is “not soluble”. With “MASTSAATPLKNKRKFENGKKKPKTLKDEFGEKLDIKPVIVPPKPADEYDYDSSDEEDLRNTIGNIPIKWYDDEDHIGYDKFGEKIAKPAKKGEIETFLEKMEDPDYWRKVFDKQTGTDVKLTDEQIEKIHNIATGKYPTIGYNPYEPFLDIFSSQKEIHPIDNRPEPKSRFIPSKDEMRMVSRMVHAIKMGWAKGPRAKKEEHKSYDLWASEDALDNVTKSQLSRMRVHMPAPKVALPTHAESYNPPEEYIFDDEERKKWEEAEKEDRVLNFMPSKYDALRKVPQYDKFITERFERCLDLYLAPRQRKMRIHADPTDLLPDLPNPNDLRPFPTTLAFYMRGHTGQVRAITVEPERGELLASGGEDGTVRIWMIATGRCIKTFQMDGEVTSVSFSPVADRTLLAVAYEGKYVAILNTGCGDRLHVQQTEALLAETPTDAQEDGAVVTWRKSKEKLMLKMPNEVRQVTWHSKGDYFASVAIDDIAKSVYVHQLSKAKSQCPFQKRKGHVQAVTFHPTQARLFVATKIHVREYDLARCVLVKKLITGCKHISTMATDANGENLFLGGLDRRFCWMDLQMGNKPWKKLKHHTAAVRSVAYHKKYPLLATVSDDGTAMVYYARIYTDFVKDNELYPVKRLRAHEKTPNDLCMLHTTWHPTQPWLITAGADGTIALFTY”, the “soluble on expression in E. coli” value is recorded as “not soluble”. “MATPAYMSITGTKQGLITAGAFTEDSVGNTYQEGHEDQVMVQGFNHEVIIPRDPQSGQPTGQRVHKPVVITKVFDKASPLLLAALTSGERLTKVEIQWYRTSAAGTQEHYYTTVLEDAIIVDIKDYMHNCQDPGNAHFTHLEDVHFTYRKITWTHEVSGTSGSDDWRSPVAG”: the “soluble on expression in E. coli” value is “soluble”. Turning to “GPGSMGQSIGDRLQNLVLRDEERARLLSLQNTKSILPSLAPSRRLLLVHAIMTLVVPYVTRKVQRKVLEEGWEREPVPTARYRIAKALRYAVVTWSLLSLANTFNFLMTGRYRTLVERILSLRLVYGSQRMMRFTNLLYMNQHVQWQTWMSLFSALSLGR”, the “soluble on expression in E. coli” value was “not soluble”. As for “MGSDKIHHHHHHAEPVADPMEEEGISVVRYDKLLDEYVRFNSFSALQKMNLEYALPTKLLIEDVLAIGQVSDDHIFQRLKTFYSDTTLVRLIEDVEAKYPELESVEKNLTKGFGKLQKEIPDIMIPMIYTQISAFNESIVLSDSVLGISLDKYMGEDYPLYKRFYYNYQRRTMRPDRIVPDCLVFYLMSQYPFPMDYSRTLLDVMMHYGKINYVVQHLLDYSSSEEALGYSDLEREWCKENQQQMWRYILEQDHLHATDPMVVRQYTRPAPFTNTLGENAPSMVGTWIGTKIITSYMKHHKKTTLRQLLEMSDYERMFTESRFNP”, the “soluble on expression in E. coli” value was “not soluble”. Regarding “MGSDKIHHHHHHMEQAATQRLATGIPGLDEICGGGLVPRYAYLVRGGPGTGKTTLGLHFLAAGAANGETTLFISLEETESKIRWNAAQTGINLNQVHILDLSPSSDFFANTQIYDIFSPAEVEREPITRQIVETVQRLQPTRVFLDSITQFRYLTPDTFQFRKQVISFLRFLAEQRTTVVFSAENSAAFPDDDLQYIADGIISLELTNTGRYLTVSKMRGSSFVSGRHAMRLTTQGLQVFPRIIPTPLVAGHAFTLIPSGVPELDELLNGGVERGTITLITGPSGVGKTTLGFQFMKEAASRGERSMVFSFEEEIEIMQQRCEAVNIPVRAMQKQQLLRIEKIEPLQYNPAEFAQHVRYFIEQEQIKVVMIDSVTGYRLCMHGEDLISQLHALSKYLQSRGVTVFLIMDTTDIVGDFKVTEIGASYLGDNIIFLRFLEIEGELRKAIGVLKKRLGDFEKTLREFAISRYGIKVGKPLTNLRGILSGMPTWVDKA”, the “soluble on expression in E. coli” value is “not soluble”. Regarding “MHAVKPFPLCNLPLISLREVIDYLPTFDIFVLLHTSQKTKKLISSNIRDFVARQEHYKKQDISVRVVAERSYMEVIAISPKIRSTRFKRNDINQALEAAKYLVDHFKCDTDSVWLRITHRKEDETRQIITSVKEINLNITNLQFRHERISSDLFNWLLENCVQDVHIWVLEPQSITVSNWNVFEKVRKYNFQGINFSSHQANMLLKSLKSNNNFVQFRANDIENSLDLSVVFEDTGATAKMDTYRSVVFRPGLTVLKEYKPSKSRFVTENNNGGEMSICITEHAFSFQSN”, the “soluble on expression in E. coli” value is on record as “not soluble”. As to “MAVESRVTQEEIKKEPEKPIDREKTCPLLLRVFTTNNGRHHRMDEFSRGNVPSSELQIYTWMDATLKELTSLVKEVYPEARKKGTHFNFAIVFTDVKRPGYRVKEIGSTMSGRKGTDDSMTLQSQKFQIGDYLDIAITPPNRAPPTSGRMRPY”, the “soluble on expression in E. coli” value is given as “soluble”. “MAADESYPSVKERAFFQGLPFDYAVVFDNALIDRLFSRLRQERALVEDGLLARPDHRPWRLGALITEADTLDRRLSEQIRCLSGQSLPVASIALVTATTEAREAVSLWASVTCPPNVVVTPDPRAWMAEADLDLVVVFAPGALAHPGLFAALGRALQRDGADFAVWNHLLVRRRAEAPGQDITYLRCPDPTRQPVALAHMEAAGPAWAATPRLFETIKGDLGKALIGMARHPLSIALLRGKPKVVRLNEFLGACRVDSLGTPPWPRQSALVEAYGAALEDETFRLEIDPAHPTQPIRLTPRRRAHSIDIVINFRDKPELTLAAMGSIYAQTTTARVSLFLIDNQSTPAARAAIDAEAARAPAGIAVRVLSYDRPFNHSAQTNLGAAAGNGEALVFMSNDCALVDPGALDEMAAWALAPGVGTVGVRLETAEGRLACSGICALYPDHDFHPIVAEGFDQLGAGLNRETFANTFACACLARAVFRQAGPLDAIGFPIGLNDVDYCLRLRERGLRHLYLGAFLARHQALGSRPASDDGAQSAFLRQTYGHLLFDKEYMLEYDFLRQFTAAKLRQDIRSQRDKTTTVLEHHHHHH”: the “soluble on expression in E. coli” value is listed as “not soluble”.

“MTGRTGGNGSTQAQPERVMLVGVMLDKDGTGSSAARLNGFQTALAEAVELVKAAGGDSVRVETAKRDRPHTALFVGTGKAAELSEAVAADGIDLVVFNHELTPTQERNLEKELKCRVLDRVGLILAIFARRARTQEGRLQVELAQLSHLAGRLIRGYGHLQSQRGGIGMKGPGETKLETDRRLIAHRINALKKQLANLKKQRALRRKSRESGTIKTFALVGYTNVGKSSLFNRLTKSGIYAKDQLFATLDTTARRLYISPECSIILTDTVGFVSDLPHKLISAFSATLEETAQADVLLHVVDAAAPNSGQQIEDVENVLQEIHAGDIPCIKVYNKTDLLPSEEQNTGIWRDAAGKIAAVRISVAENTGIDALREAIAESCAAAPNTDETEMPLEHHHHHH”: the “soluble on expression in E. coli” value is recorded as “soluble”.
